In paper PMC4975651 (Molecular cell, 2016) one finds Kd data, which are given here for 1 molecule.

For this test, the target named is ZMYND8-PBP (93-426aa) (human). Put plainly: ITC. A general note: Isothermal titration calorimetry measures the heat released or taken up as one component is titrated into another.

Usually Kd stands for the constant that tells how readily two partners part at equilibrium. On to ARTKQTARKSTGGKA (monomethyl-lysine at K4; acetyl-lysine at K14) [H3K4me1K14ac peptide], for which the Kd is about 5.4 µM.
